According to PMC10022743:

B1: HA–YKT6-WT (full-length, siRNA-resistant) [human] / SNAP29 [human (endogenous in HEK293T)] (parent)
chain 1: MKLYSLSVLYKGEAKVVLLKAAYDVSSFSFFQRSSVQEFMTFTSQLIVERSSKGTRASVKEQDYLCHVYVRNDSLAGVVIADNEYPSRVAFTLLEKVLDEFSKQVDRIDWPVGSPATIHYPALDGHLSRYQNPREADPMTKVQAELDETKIILHNTMESLLERGEKLDDLVSKSEVLGTQSKAFYKTARKQNSCCAIM
chain 2: MSAYPKSYNPFDDDGEDEGARPAPWRDARDLPDGPDAPADRQQYLRQEVLRRAEATAASTSRSLALMYESEKVGVASSEELARQRGVLERTEKMVDKMDQDLKISQKHINSIKSVFGGLVNYFKSKPVETPPEQNGTLTSQPNNRLKEAISTSKEQEAKYQASHPNLRKLDDTDPVPRGAGSAMSTDAYPKNPHLRAYHQKIDSNLDELSMGLGRLKDIALGMQTEIEEQDDILDRLTTKVDKLDVNIKSTERKVRQL

Variants of: B1
Assay: immunoprecipitation followed by mass spectrometry
Conditions: with SNAP29 [human (endogenous in HEK293T)], 2 h EBSS and 300 nM Torin 1, read off a plot
[1] = YKT6 siRNA-treated HEK293T WT cells

Row | Variant | screen value (HEK293T WT cells) [log2] | screen value [1] [log2]
1 | chain 1 T156E | -2.3 | -2.3
2 | chain 1 T156A | 2 | 2
